Reference: the supplement of paper PMC12667976

B1: library; numbered along this chain (parent)
chain: MATDAALRRLLRLHRTEIAVAVDSAFPLLHALADHDVVPEDKFQETLHLKEKEGCPQAFHALLSWLLTQDSTAILDFWRVLFKDYNLERYGRLQPILDSFPKDVDLSQPRKGRKPPAVPKALVPPPRLPTKRKASEEARAAAPAALTPRGTASPGSQLKAKPPKKPESSAEQQRLPLGNGIQTMSASVQRAVAMSSGDVPGARGAVEGILIQQVFESGGSKKCIQVGGEFYTPSKFEDSGSGKNKARSSSGPKPLVRAKGAQGAAPGGGEARLGQQGSVPAPLALPSDPQLHQKNEDECAVCRDGGELICCDGCPRAFHLACLSPPLREIPSGTWRCSSCLQATVQEVQPRAEEPRPQEPPVETPLPPGLRSAGEEVRGPPGEPLAGMDTTLVYKHLPAPPSAAPLPGLDSSALHPLLCVGPEGQQNLAPGARCGVCGDGTDVLRCTHCAAAFHWRCHFPAGTSRPGTGLRCRSCSGDVTPAPVEGVLAPSPARLAPGPAKDDTASHEPALHRDDLESLLSEHTFDGILQWAIQSMARPAAPFPS

Variants of: B1
Experiment: AIRE transcriptional activation functional score (insulin promoter-GFP; nonsense median 0, synonymous median 1) (normalised score); higher = higher AIRE activity (more reporter activation)
Settings: with insulin promoter-GFP reporter in HEK293
Outline: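 Using Bxb1 recombinase, codon-optimized NNN-codon libraries for three AIRE regions were inserted into Flp-In T-REx HEK293 landing-pad cells with an insulin core promoter-GFP reporter. After integrants (mCherry+, BFP−) were sorted at day 7 and expanded for 7 days, the top 10% GFP and unselected integrant populations underwent tile-sequencing. Functional scores are wild-type-subtracted enrichments of variants in select over non-select samples. A cutoff of 10 counts per million in non-select applied, and values were rescaled (nonsense median 0, synonymous median 1) and averaged over biological replicates.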

AIRE transcriptional activation functional score, by site and new letter:
E359: P 0.935; S 1.27; R 1.02; M 1.08; H 0.97; T 0.92; N 0.928; W 1.24
E354: T 0.99; I 1.13; V 1.08; F 1.33; C 1.16; D 1.22; S 0.901; Y 1.38; M 1.47; G 1.13; R 1.14; H 1.1; A 0.949; Q 0.948; K 0.669; P 0.835; W 1.16; L 1.05; N 0.818
L366: I 0.894; C 0.406; D 0.846; V 0.996; T 1.17; G 0.607; F 1.02; A 0.656; W 1.29; P 1.13; Q 0.884; S 0.837; Y 0.821; M 0.554; H 1.21; K 1.37; E 1.32; N 0.777; R 1.1
Q358: S 1.04; H 1.12; T 0.929; N 1.18; D 0.761; F 1.16; K 1.02; P 1.05; E 1.19; A 0.941; W 1.27; R 1.17; L 1.14; V 1.07; I 1.1; G 1.34; M 1.12; C 0.97; Y 1.04
P365: A 1.05; I 0.733; T 0.843; D 0.214; C 1.05; M 1.49; L 1.07; K 1.17; Q 0.92; W 1.45; E 1.33; R 1.28; S 1.14; H 0.594; G 0.47; N 0.389; V 0.952; F 1.36; Y 1.75
E363: L 1.29; T 1.29; W 1.59; D 0.917; I 1.02; V 1.14; G 1.02; K 1.09; S 1.04; H 1.19; R 1.21; C 1.27; A 1.1; Y 1.28; P 0.843; N 1.09; F 1.34; Q 0.775; M 1.7
P350: R 1.18; C 0.761; Q 0.912; A 1.13; V 1.01; Y 0.767; N 1.37; T 0.866; M 1.11; F 1.25; G 1.14; I 1.14; L 1.17; W 1.02; E 1.04; D 1.09; H 1.47; S 0.947; K 0.93
V362: E 1.07; R 1.14; D 1.3; S 1.07; G 1.02; F 0.981; Y 1.31; C 0.914; Q 1.16; I 1.32; K 1.11; P 0.988; T 0.915; H 0.807; W 1.24; M -0.739; L 0.999; A 1.13; N 1.3
P367: D 0.924; A 0.781; C 1.47; F 1.13; E 1.46; I 1.46; G 0.153
E353: K 1.17; T 1.19; I 1.13; D 0.963; F 1.25; C 1.2; H 0.837; L 1.18; N 0.963; A 1.07; G 0.959; Q 1.18; W 1.17; M 1.19; R 1.14; V 1.15; P 1.12; Y 1.42; S 1.14
